Laboratory results taken from the supplement of paper PMC9170038.

Tested on: MS2 coat protein
Assay: apparent KD of MS2 coat protein; designed switch direction (-1 OFF switch, 1 ON switch): 1; higher = weaker reporter binding
How it was run: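 Designed RNA switches were transcribed on Illumina chips by stalled E. coli RNA polymerase and titrated with SNAP-549-labelled MS2 coat protein from 0.7 or 1.5 nM, doubling to 3 µM. Step length ran from 0.8–1.5 h at the lowest concentration to 10–20 min at the highest. The apparent KD is the median over clusters for each design, from curve-fitted normalised cluster fluorescence.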

[1] = Eterna round: R95, input ligand: FMN 200 uM
[2] = Eterna round: R95, input ligand: microRNA oligo, concentration not stated
[3] = Eterna round: R95, input ligand: none
[4] = input ligand: microRNA oligo, concentration not stated

UGGUAACAUGAGGAUCACCCAUGUCAAAUGAAUCGAGGAUAUGGGAAUUAACAAUAUAAACUAGAAGGCGAAUUUG [Altered State 1-7 - Jieux - Same State 1] (puzzle: Same State 1)
apparent KD of MS2 coat protein [1]: 144 nM
apparent KD of MS2 coat protein [2]: 284 nM
apparent KD of MS2 coat protein [3]: 290 nM

GAGUGUGAAUAAGGAUAUAUGAGAGAGUGAGUAAUAGAAGGUAUACAAACAUGAGACAUGAGGAUCACCCAUGUAUCACCCAUG [Something that seems to work] (Eterna round: R96, puzzle: Same State NG 1)
apparent KD of MS2 coat protein [4]: 14.5 nM

CGUCCGGCCUGUGCUGGCCGGUGGCUUGUACAUGAGGAUCACCCAUGUUCUUGUGCUGGCGUUUUGCUCGUCUUGUG [salish99_mir208a_r3_020] (puzzle: Sensor for hsa-mir-208a)
apparent KD of MS2 coat protein [1]: 28.2 nM
apparent KD of MS2 coat protein [2]: 20.7 nM
apparent KD of MS2 coat protein [3]: 32.5 nM

ACAUGAGGAGCAGGAUAUCGCAUGAGGAUCACCCGAGAAGGGCUCACACAUGAGGAUCACCCAUGUAUCACCCAUGUAUGUUGA [twils 1] (Eterna round: R96, puzzle: Same State NG 1)
apparent KD of MS2 coat protein (input ligand: FMN 200 uM): 484 nM
apparent KD of MS2 coat protein [4]: 105 nM
apparent KD of MS2 coat protein (input ligand: none): 498 nM

AGUCCAGCGAAAGCUGGACAAAAGCAUGUACAUGAGGAUCACCCAUGUUUAUGUACAAGCUUUUUGCUCGUUUUAAA [JL mod - D95 - 16] (puzzle: Sensor for hsa-mir-208a)
apparent KD of MS2 coat protein [1]: 365 nM
apparent KD of MS2 coat protein [2]: 13.1 nM
apparent KD of MS2 coat protein [3]: 433 nM

AACUAUCUAUCUCAGGAUAUCAUGUCAAAGACAUGAGGAUCACCCAUGUACCAGGAAACUGGUUAUGAGAAGGGAGAUAGAUAGA [Mat - Same State 2 - Mod - D38] (puzzle: Same State 2)
apparent KD of MS2 coat protein [1]: 92.5 nM
apparent KD of MS2 coat protein [2]: 87.7 nM
apparent KD of MS2 coat protein [3]: 97 nM

UUAUUAUUUACAUGAGGAUCACCCAUGUUUUUAUGUCAGAGAUAGGAUAUAGAAGUCUCGUUUUACUAGAAGGAUCUUUUUAUU [JR_SSNG3_Sub083] (Eterna round: R96, puzzle: Same State NG 3)
apparent KD of MS2 coat protein (input ligand: FMN 200 uM): 21.2 nM
apparent KD of MS2 coat protein [4]: 16.7 nM
apparent KD of MS2 coat protein (input ligand: none): 22.8 nM

AGAAGACAUGAGGAUCACCCAUGUACCUCAUAAGGAGAGAGCGAGGAUAUGUAGAGAGAGAGGGAACAGAAGGUGUGAGAGGAA [Default title] (Eterna round: R96, puzzle: Same State NG 3)
apparent KD of MS2 coat protein (input ligand: FMN 200 uM): 218 nM
apparent KD of MS2 coat protein [4]: 99.4 nM
apparent KD of MS2 coat protein (input ligand: none): 161 nM

UGAAUACAUGAGGAUCACCCAUGUCAACGUAGUCGAGGAUAUGGGCAGCCGUGAGGCGUACCAGAAGGCGAAGAGG [Mat - Same State 1 - Mod of JL - D4] (puzzle: Same State 1)
apparent KD of MS2 coat protein [1]: 40.4 nM
apparent KD of MS2 coat protein [2]: 88.8 nM
apparent KD of MS2 coat protein [3]: 132 nM

AUCCUACAUGAGGAUCACCCAUGUGAAGCCUCAAUAGGAUAUGCGUGUGCCUUGGCGCAUGCAGAAGGAUUGAAGC [JL Aveso mod 3] (puzzle: Same State 1)
apparent KD of MS2 coat protein [1]: 91 nM
apparent KD of MS2 coat protein [2]: 311 nM
apparent KD of MS2 coat protein [3]: 967 nM

AUUUGUAAUGCAGGAUAUGAUUAACAUGAGGAUCACCCAUGUGGUGUUGUGAGUAAGGAGAGUGAUCAGAAGGGCAUUUUUUUU [JMF's solution 98] (Eterna round: R96, puzzle: Same State NG 2)
apparent KD of MS2 coat protein (input ligand: FMN 200 uM): 800 nM
apparent KD of MS2 coat protein [4]: 295 nM
apparent KD of MS2 coat protein (input ligand: none): 526 nM

AUUAAACAUGAGGAUCACCCAUGUCAACAAAGUCGAGGAUAUGGGCAAAUAAAAUAAGAACCAGAAGGCGAUUAAU [salish99_ss1_r3_078] (puzzle: Same State 1)
apparent KD of MS2 coat protein [1]: 18.7 nM
apparent KD of MS2 coat protein [2]: 109 nM
apparent KD of MS2 coat protein [3]: 95.7 nM

AACAAUCUAUCUGAGGAUAUCAUGAAAUAAACAUGAGGAUCACCCAUGUGCAGGAUAACUGCAUAUGAGAAGGCAGAUAGAUUGA [salish99_ss2_r3_041] (puzzle: Same State 2)
apparent KD of MS2 coat protein [1]: 57.3 nM
apparent KD of MS2 coat protein [2]: 661 nM
apparent KD of MS2 coat protein [3]: 656 nM

UCGUUCAUCGUAGGAUAUCUAGGAUAUGAACGAGGAUCACCCGAGCAGCAUCAGCGCAUCAGAGGAGAGAAGGACGAUGAUGCG [pwkr ssNG2 2F5 2FMN.4] (Eterna round: R96, puzzle: Same State NG 2)
apparent KD of MS2 coat protein (input ligand: FMN 200 uM): 1080 nM
apparent KD of MS2 coat protein [4]: 37.2 nM
apparent KD of MS2 coat protein (input ligand: none): 172 nM

GCGAGCGUACUUGCAACAUGAGGAUCACCCAUGUUAACUGGACAGGAUAUGGUACCGUUUCGGUACCAGAAGGGUUCACUCAUG [JL SSNG3 3.59] (Eterna round: R96, puzzle: Same State NG 3)
apparent KD of MS2 coat protein [4]: 64.2 nM

UUUAAACAUGAGGAUCACCCAUGUUUUUUCAUGGGAGGAUAUCUAAGUUAAUUAUAUUAAGGAGAAGGCCUAUUUU [× ×•×ª×• ×ž×“×™× ×” × ×—×ª-05] (puzzle: Same State 1)
apparent KD of MS2 coat protein [1]: 111 nM
apparent KD of MS2 coat protein [2]: 48.8 nM
apparent KD of MS2 coat protein [3]: 53.1 nM

CAAACUUAGUAGGAUAGGUACCCAGGAUGACAUGAGGAUCACCCAUGUAAGAGCUUUUUGCUCGUCAUUAACAGUUG [JR_SHM208a_Sub017] (puzzle: Sensor for hsa-mir-208a)
apparent KD of MS2 coat protein [1]: 51.7 nM
apparent KD of MS2 coat protein [2]: 53 nM
apparent KD of MS2 coat protein [3]: 78.3 nM

UGGAUCUAGGCUUGCCUGGGUCCAUGUUGACAUGAGGAUCACCCAUGUGUAUUCUAUAAGCUUUUUGUUUGUCAACU (puzzle: Sensor for hsa-mir-208a)
apparent KD of MS2 coat protein [1]: 62.5 nM
apparent KD of MS2 coat protein [2]: 23.3 nM
apparent KD of MS2 coat protein [3]: 130 nM

UUGAAGAAUUAAGGAUAUUGAAUACAUAUGUUUAACAUGAGGAUCACCCAUGUGGGUUGCGGUGUCGAGAAGGUAAAUUAAUAG [Mat - same State NG 2 - JL mod - D94] (Eterna round: R96, puzzle: Same State NG 2)
apparent KD of MS2 coat protein (input ligand: FMN 200 uM): 221 nM
apparent KD of MS2 coat protein [4]: 191 nM
apparent KD of MS2 coat protein (input ligand: none): 291 nM

ACAAGCUUUUUGCUCCUCUUAUGUCCGAAACAUGAGGAUCACCCAUGUAUAGAUUGUGUGUUGUUGUAGAUGCAAGA [JR_SHM208A_Sub061] (Eterna round: R96, puzzle: Sensor for hsa-mir-208a)
apparent KD of MS2 coat protein (input ligand: FMN 200 uM): 73.8 nM
apparent KD of MS2 coat protein [4]: 63.4 nM
apparent KD of MS2 coat protein (input ligand: none): 74.1 nM

AAUCGUUUAAUAGGAUAUCGCUAUACAUGAGGAUCACCCAUGUUUACCACGCUGGUUUUUCGUACCGAGAAGGAUUCUGAUGAU [JL JR sub007 mod 8] (Eterna round: R96, puzzle: Same State NG 2)
apparent KD of MS2 coat protein (input ligand: FMN 200 uM): 36.6 nM
apparent KD of MS2 coat protein [4]: 26.5 nM
apparent KD of MS2 coat protein (input ligand: none): 39.9 nM

AGUAUUUAUGCAGGAUAUGAUUAACAUGAGGAUCACCCAUGUGGUGUUGUGAGUAAGGAGAGUGAUCAGAAGGGCAUUUUUUUU [JMF's solution 74] (Eterna round: R96, puzzle: Same State NG 2)
apparent KD of MS2 coat protein (input ligand: FMN 200 uM): 512 nM
apparent KD of MS2 coat protein [4]: 324 nM
apparent KD of MS2 coat protein (input ligand: none): 380 nM

AUAAGGCAAGCUUUUUUCUCGUAGUGUAAACAUGAGGAUCACCCAUGUGCCCACCCUGGAUCUUUGGAUCGCAAAAC [Ceatgeor] (puzzle: Sensor for hsa-mir-208a)
apparent KD of MS2 coat protein [1]: 23.9 nM
apparent KD of MS2 coat protein [2]: 18.6 nM
apparent KD of MS2 coat protein [3]: 23.7 nM

UGUUGUAUUACAGGAUAUCUAAUAUUUUUAUUUAGAGAAGGGUAUUCACAUGAGGAUCACCCAUGUAUAUACGAGGAAGUUGUG [JMF's solution 8] (Eterna round: R96, puzzle: Same State NG 1)
apparent KD of MS2 coat protein [4]: 24.6 nM

GGAGCCAAGGCAGGAUAUUCAAAACAUGAGGAUCACCCAUGUGGGUAAAAGGCCAGAAGGCCUUGGGAGAAGGGCCAUGGCUCG [Xeonanis - 13 mod12] (Eterna round: R96, puzzle: Same State NG 2)
apparent KD of MS2 coat protein (input ligand: FMN 200 uM): 11.5 nM
apparent KD of MS2 coat protein [4]: 9.02 nM
apparent KD of MS2 coat protein (input ligand: none): 15.8 nM

GUAGGACAUGAGGAUCACCCAUGUGGGAGGGAACGAGGAUAUGUGAUUAGCGAGGAGAGGACAGAAGGCGUGGUAG [JR_SS1_Sub024] (puzzle: Same State 1)
apparent KD of MS2 coat protein [1]: 55.2 nM
apparent KD of MS2 coat protein [2]: 35.4 nM
apparent KD of MS2 coat protein [3]: 50.8 nM

AGUCCAGCGAAAGCUGGACAAAAGCAUGUACAUGAGGAUCACCCAUGUUCAUGUACAAGCUUUUUGCUCGUCUUAAA [Mat - Sensor - JL mod - D95] (Eterna round: R96, puzzle: Sensor for hsa-mir-208a)
apparent KD of MS2 coat protein (input ligand: FMN 200 uM): 485 nM
apparent KD of MS2 coat protein [4]: 14.1 nM
apparent KD of MS2 coat protein (input ligand: none): 467 nM

GGGCCAGCCUGUGCUGGGCUUUAGCAUGUACAUGAGGAUCACCCAUGUCGUGUACAUGCUUUUUGCUCGUCUUUAAA [Photon Torp-07] (puzzle: Sensor for hsa-mir-208a)
apparent KD of MS2 coat protein [1]: 70.5 nM
apparent KD of MS2 coat protein [2]: 22.5 nM
apparent KD of MS2 coat protein [3]: 100 nM

UUUCUCAUGUAAGGAUAUGCAGCCGUUUCGGCUGCAGAAGGUACUAUAAUACAUGAGGAUCACCCAUGUCUCUCGCAUUGCGAG [JL SSNG1 1.48] (Eterna round: R96, puzzle: Same State NG 1)
apparent KD of MS2 coat protein (input ligand: FMN 200 uM): 263 nM
apparent KD of MS2 coat protein [4]: 28.9 nM
apparent KD of MS2 coat protein (input ligand: none): 62 nM

UGCCUGAGUCGAGGAUAUUAUGGAUCAAUUAAUACAUGAGGAUCACCCAUGUAAUUAAUUUAACAUGAGAAGGUGACUCAGGCU [SSNG2/10-B3] (Eterna round: R96, puzzle: Same State NG 2)
apparent KD of MS2 coat protein [4]: 8.4 nM

UGUUAUUUGACAGGAUAUUGAUUGUUAAGUUUUUACAUGAGGAUCACCCAUGUUGUUCAUUCGUACAAGAAGGGUCAAGUUUUU [JR_SSNG2_Sub020] (Eterna round: R96, puzzle: Same State NG 2)
apparent KD of MS2 coat protein [4]: 52.6 nM

UUUGCAUGACGAGGAUAUCAUUUAUAUCUUGAUUGAGAAGGCGUUCUUUUUUUUACCUAACAUGAGGAUCACCCAUGUGACAGU [JR_SSNG1_Sub050] (Eterna round: R96, puzzle: Same State NG 1)
apparent KD of MS2 coat protein (input ligand: FMN 200 uM): 14.1 nM
apparent KD of MS2 coat protein [4]: 13.4 nM
apparent KD of MS2 coat protein (input ligand: none): 16.1 nM
